Laboratory results from patent US20090131309A1, “ICA512 COUPLES INSULIN SECRETION AND GENE EXPRESSION IN BETA-CELLS” (Technische Universität Dresden Medizinizche Fakultät Carl …, priority 2004, published 2009).
Blank lines part the entries; values can stand above or below the molecule they belong to. Starred links: 1 amine or outer side, 2 acyl side, 3 side chain; linkers in the order of their positions; H or OH if unused. Positions of bridges follow the written chain, without caps; N, C: chain ends. Non-standard residues stand in square brackets, D forms with d. Residues, ends and D or L forms follow the SMILES beside them. Chains are numbered I, II in the order given. Actinocin(9to1) = Cc1c2oc3c(C)ccc(C(=O)[*:1])c3nc-2c(C(=O)[*:2])c(N)c1=O; NMeV = CN[C@H](C(=O)O)C(C)C; Sar = CNCC(=O)O

Key:
[1] = tested on: INS-1 cells; test: Uridine incorporation in INS-1 cells; format: cell-based, rat; settings: 5 μg/ml actinomycin D; ICA512-CCF-GFP-transfected INS-1 cells
[2] = tested on: pro-ICA512; settings: cells stimulated for 2 hours; reference 8; cited from earlier work
[3] = biological target: T1, in-vitro transcribed and translated [^35S]-labeled PIASy (mouse, UniProt Q9JM05 1-507, [35S]-methionine label); test: GST pull-down, SDS-PAGE and autoradiography
T1 construct: The mouse PIASy cDNA in pcDNA3.1 is the only untagged PIASy construct described; also called [^35S]-PIASy; [^35S]-methionine-PIASy
T1 sequence (looked up): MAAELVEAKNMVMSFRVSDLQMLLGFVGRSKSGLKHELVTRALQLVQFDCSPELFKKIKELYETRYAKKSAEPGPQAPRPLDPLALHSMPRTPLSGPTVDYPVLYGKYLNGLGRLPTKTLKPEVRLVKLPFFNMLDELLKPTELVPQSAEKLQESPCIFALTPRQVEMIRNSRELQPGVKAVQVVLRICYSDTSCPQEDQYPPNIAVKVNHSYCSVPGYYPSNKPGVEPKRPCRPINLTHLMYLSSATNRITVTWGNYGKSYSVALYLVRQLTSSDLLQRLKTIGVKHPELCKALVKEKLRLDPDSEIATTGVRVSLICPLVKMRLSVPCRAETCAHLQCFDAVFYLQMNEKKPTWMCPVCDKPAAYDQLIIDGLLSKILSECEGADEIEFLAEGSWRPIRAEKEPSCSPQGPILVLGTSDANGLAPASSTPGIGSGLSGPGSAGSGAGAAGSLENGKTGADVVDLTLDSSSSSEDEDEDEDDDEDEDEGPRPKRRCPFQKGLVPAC

[4] = biological target: T2, STAT5b (rat, UniProt P52632 1-786); test: cell-based or functional assay
T2 sequence (looked up): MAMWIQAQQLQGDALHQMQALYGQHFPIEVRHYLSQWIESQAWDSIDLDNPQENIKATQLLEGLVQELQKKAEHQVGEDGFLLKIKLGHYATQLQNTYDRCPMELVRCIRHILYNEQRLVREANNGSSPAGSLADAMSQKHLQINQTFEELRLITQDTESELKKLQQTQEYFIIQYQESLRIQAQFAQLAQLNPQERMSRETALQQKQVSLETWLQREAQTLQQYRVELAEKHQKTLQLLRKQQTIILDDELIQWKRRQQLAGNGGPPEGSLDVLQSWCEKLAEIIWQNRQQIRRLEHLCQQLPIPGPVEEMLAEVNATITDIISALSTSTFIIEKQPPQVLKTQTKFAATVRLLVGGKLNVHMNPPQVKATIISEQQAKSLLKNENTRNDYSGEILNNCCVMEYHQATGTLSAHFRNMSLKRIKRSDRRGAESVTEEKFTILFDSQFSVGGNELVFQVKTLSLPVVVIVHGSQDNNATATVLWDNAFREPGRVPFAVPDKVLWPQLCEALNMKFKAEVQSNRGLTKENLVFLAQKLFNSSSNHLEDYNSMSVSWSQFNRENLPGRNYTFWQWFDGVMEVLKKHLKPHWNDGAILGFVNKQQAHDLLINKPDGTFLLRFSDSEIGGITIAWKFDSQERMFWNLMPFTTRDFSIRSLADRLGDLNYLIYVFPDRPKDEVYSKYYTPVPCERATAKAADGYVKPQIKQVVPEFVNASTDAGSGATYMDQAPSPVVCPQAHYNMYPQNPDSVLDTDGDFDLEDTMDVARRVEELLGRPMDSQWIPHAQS

[5] = biological target: T2, STAT5b; test: anti-GFP immunoprecipitation from total INS-1 extracts, immunoblot for STAT5b
Description: Immunoprecipitation. INS-1 cells were transiently transfected With one or more of the following constructs: GFP, ICA512-CCF-GFP, ICA512-CCF(K/A⁷⁵⁴)-GFP, SUMO-1 and HA-SUMO-1. Anti-GFP IgGs were used for immunoprecipitations from total or cytosolic extracts. Immunoprecipitates were immunoblotted with anti-STAT5b, anti-PY-STAT5, anti-GFP or anti-HA antibodies. 600 μg and 200 μg protein were used as starting material for immunopreciptation of sumoylated ICA512 and STAT5, respectively.

[6] = biological target: T3, PIASy-YFP (mouse, UniProt Q9JM05 2-507); test: FRET by acceptor photobleaching in nuclei of co-transfected INS-1 cells
T3 construct: whole, on cells; Transiently expressed in INS-1 cells; nuclear; not shown: YFP encoded by pEYFP-N2 (Clontech), fused at the C-terminus
T3 sequence (looked up): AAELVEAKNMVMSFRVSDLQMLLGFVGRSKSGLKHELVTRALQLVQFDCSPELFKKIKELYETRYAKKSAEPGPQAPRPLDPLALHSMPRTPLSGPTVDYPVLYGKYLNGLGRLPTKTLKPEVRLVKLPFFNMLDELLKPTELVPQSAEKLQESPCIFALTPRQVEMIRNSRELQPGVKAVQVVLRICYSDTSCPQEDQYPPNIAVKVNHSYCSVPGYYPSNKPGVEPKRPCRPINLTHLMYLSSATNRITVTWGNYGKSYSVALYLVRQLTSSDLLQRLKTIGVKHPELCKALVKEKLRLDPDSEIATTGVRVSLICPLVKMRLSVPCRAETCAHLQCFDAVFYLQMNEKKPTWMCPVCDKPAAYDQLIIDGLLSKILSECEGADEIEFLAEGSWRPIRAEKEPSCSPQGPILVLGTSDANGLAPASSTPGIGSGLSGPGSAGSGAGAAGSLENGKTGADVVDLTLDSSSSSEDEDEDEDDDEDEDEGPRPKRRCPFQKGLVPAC
Description: FRET analysis. INS-1 cells transiently co-transfected with ICA512-CFP, PIASy-YFP, Ism4-YFP and Ism4-CFP were incubated either in resting or stimulating buffer for 90 minutes. Following fixation in 2% paraformahaldehyde, cells were imaged with an inverted […] confocal microscope (Zeiss) using a Plan-Apochromat 100× 1.4 oil DIC objective, The pinhole diameter was set between 1.0 and 1.25 Airy-Unit. […] 458 nm and 514 nm laser lines were used to excite CFP and YFP, respectively. CFP images were acquired with a 458 nm dichroic mirror and a bandpass filter of 475-495, while YFP fluorescence was collected with a 514 nm dichroic mirror and a bandpass filter of 530-600 nm. FRET was assessed by measuring the dequenching of CFP during the photobleaching of YFP performed with the 514 nm laser line at 70% power and for six cycles of 30 sec. each. Mean fluorescence of CFP and YFP were determined by tracing the nuclear perimeter of the cell using the “region of interest” software function. Fluorescence intensity of CFP after photobleaching was normalized to 100% at time 0. In each experiment, 6-9 fields for each slide were photobleached and recorded. Each experiment was independently performed two times.

Molecule: Cc1c2oc3c(C)ccc(C(=O)N[C@@H]4C(=O)N[C@H](C(C)C)C(=O)N5CCC[C@H]5C(=O)N(C)CC(=O)N(C)[C@@H](C(C)C)C(=O)O[C@@H]4C)c3nc-2c(C(=O)N[C@@H]2C(=O)N[C@H](C(C)C)C(=O)N3CCC[C@H]3C(=O)N(C)CC(=O)N(C)[C@@H](C(C)C)C(=O)O[C@@H]2C)c(N)c1=O [actinomycin D, reference compound] (I: T[dV]P[Sar][NMeV] / II: T[dV]P[Sar][NMeV]; ester I:1-I:C, II:1-II:C; linker I:N-II:N via Actinocin(9to1))
effect on the increase of 3H-uridine incorporation [1]: abolished
rapid induction of pro-ICA512 [2]: did not prevent the rapid induction of pro-ICA512

binding result [3]: no binding
B1: GST-ICA512 (800-979) (other)
chain: ESGCTVIVMLTPLVEDGVKQCDRYWPDEGASLYHVYEVNLVSEHIWCEDFLVRSFYLKNVQTQETRTLTQFHFLSWPAEGTPASTRPLLDFRRKVNKCYRGRSCPIIVHCSDGAGRTGTYILIDMVLNRMAKGVKEIDIAATLEHVRDQRPGLVRSKDQFEFALTAVAEEVNAILKALPQ
notes: Bacterially expressed; not shown: glutathione S-transferase (GST) fusion partner

luciferase activity of the STAT reporter 8GLE-CAS-FL in hGH-stimulated INS-1 cells, relative to GFP cells [4]: > 500%
B2: ICA512-CCF-GFP (other, not shown: large carriers)
chain: SQFSDAAQASPSSHSSTPSWCEEPAQANMDISTGHMILAYMEDHLRNRDRLAKEWQALCAYQAEPNTCATAQGEGNIKKNRHPDFLPYDHARIKLKVESSPSRSDYINASPIIEHDPRMPAYIATQGPLSHTIADFWQMVWESGCTVIVMLTPLVEDGVKQCDRYWPDEGASLYHVYEVNLVSEHIWCEDFLVRSFYLKNVQTQETRTLTQFHFLSWPAEGTPASTRPLLDFRRKVNKCYRGRSCPIIVHCSDGAGRTGTYILIDMVLNRMAKGVKEIDIAATLEHVRDQRPGLVRSKDQFEFALTAVAEEVNAILKALPQ

binding result [5]: binds
B3: ICA512-CCF(K/A^754)-GFP (other)
chain: SQFSDAAQASPSSHSSTPSWCEEPAQANMDISTGHMILAYMEDHLRNRDRLAKEWQALCAYQAEPNTCATAQGEGNIKKNRHPDFLPYDHARIKLAVESSPSRSDYINASPIIEHDPRMPAYIATQGPLSHTIADFWQMVWESGCTVIVMLTPLVEDGVKQCDRYWPDEGASLYHVYEVNLVSEHIWCEDFLVRSFYLKNVQTQETRTLTQFHFLSWPAEGTPASTRPLLDFRRKVNKCYRGRSCPIIVHCSDGAGRTGTYILIDMVLNRMAKGVKEIDIAATLEHVRDQRPGLVRSKDQFEFALTAVAEEVNAILKALPQ
notes: Expressed in INS-1 cells; not shown: GFP encoded by pEGFP-N1 (Clontech), fused at the C-terminus

fold increase of the recovery of ICA512-CFP signal after photobleaching of PIASy-YFP (FRET), stimulated against resting cells [6]: ~5 fold
B4: ICA512-CFP (other)
chain: SQFSDAAQASPSSHSSTPSWCEEPAQANMDISTGHMILAYMEDHLRNRDRLAKEWQALCAYQAEPNTCATAQGEGNIKKNRHPDFLPYDHARIKLKVESSPSRSDYINASPIIEHDPRMPAYIATQGPLSHTIADFWQMVWESGCTVIVMLTPLVEDGVKQCDRYWPDEGASLYHVYEVNLVSEHIWCEDFLVRSFYLKNVQTQETRTLTQFHFLSWPAEGTPASTRPLLDFRRKVNKCYRGRSCPIIVHCSDGAGRTGTYILIDMVLNRMAKGVKEIDIAATLEHVRDQRPGLVRSKDQFEFALTAVAEEVNAILKALPQ
notes: The FRET was read in the nucleus, so the partner of PIASy-YFP there is the cleaved cytoplasmic fragment ICA512-CCF-CFP; Its N-terminal limit in cells is not determined; also called ICA512-CCF-CFP (its cleaved cytoplasmic fragment in the nucleus); not shown: CFP encoded by pECFP-N1 (Clontech), fused at the C-terminus
